Assays:
[1] = biological target: the molecule itself; assay: SEC; rh BRICHOS alone on Superose 6 10/300 GL, 0.5 ml/min, 20 mM PB, 0.2 mM EDTA pH 8.0 or 20 mM ammonium acetate pH 8.0; hydrodynamic diameter by comparison with standards
[2] = biological target: T1, citrate synthase (CS) from porcine heart (porcine, UniProt P00889 28-464); assay: SEC; supernatant of CS:rh Bri3 BRICHOS 1:2 molar ratio after 2 h at 45 °C and centrifugation; Superose 6, 20 mM ammonium acetate pH 8.0, 0.7 ml/min; peak fractions by reducing SDS-PAGE; conditions: both partners purified
T1 construct: citrate synthase, mitochondrial, from porcine heart; Used native (fresh) or partly heat-denatured (2 h at 45 °C); the assays tell the two states apart; source: bought: Sigma-Aldrich (from porcine heart)
T1 sequence (looked up): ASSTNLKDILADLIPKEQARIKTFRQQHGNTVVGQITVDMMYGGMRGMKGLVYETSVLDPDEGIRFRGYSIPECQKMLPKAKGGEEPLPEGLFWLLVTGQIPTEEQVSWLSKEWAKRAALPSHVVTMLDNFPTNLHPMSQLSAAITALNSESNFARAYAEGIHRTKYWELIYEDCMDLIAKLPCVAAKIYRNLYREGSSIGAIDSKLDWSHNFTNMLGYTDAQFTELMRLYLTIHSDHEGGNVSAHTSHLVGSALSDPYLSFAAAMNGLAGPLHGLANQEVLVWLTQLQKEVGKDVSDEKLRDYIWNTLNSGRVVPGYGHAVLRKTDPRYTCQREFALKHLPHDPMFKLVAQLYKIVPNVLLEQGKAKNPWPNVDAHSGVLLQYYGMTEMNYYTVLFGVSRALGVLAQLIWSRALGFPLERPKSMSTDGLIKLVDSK

[3] = biological target: the molecule itself; assay: negative-stain transmission electron microscopy; oligomers isolated by SEC (Superose 6, 20 mM ammonium acetate pH 8.0), uranyl acetate stain, reference-free 2D classification, Feret's diameters

B1: recombinant human (rh) Bri3 BRICHOS domain (domain or fragment, UniProt Q9NQX7 112-230, looked up)
chain: MELEEDVKIYLDENYERINVPVPQFGGGDPADIIHDFQRGLTAYHDISLDKCYVIELNTTIVLPPRNFWELLMNVKRGTYLPQTYIIQEEMVVTEHVSDKEALGSFIYHLCNGKDTYRL
notes: Bri3, human, residues 112-230 (BRICHOS domain); Bri3 is a 267-residue protein; Mainly high molecular weight oligomers, partly held by disulfide bonds; Calculated monomer mass 17.3 kDa with the S tag; Vector pET-32c(+); also called Bri3(112-230); rh (S-tag) Bri3 BRICHOS; source: E. coli Shuffle T7, purified (Ni-Sepharose from 2 M urea extract, thrombin cleavage, second Ni-Sepharose); not shown: …
B1: binds [1]; binds [2].

B2: recombinant human (rh) Bri2 BRICHOS domain (domain or fragment, UniProt Q9Y287 90-236, looked up)
chain: GIKYIKDDVILNEPSADAPAALYQTIEENIKIFEEEEVEFISVPVPEFADSDPANIVHDFNKKLTAYLDLNLDKCYVIPLNTSIVMPPRNLLELLINIKAGTYLPQSYLIHEHMVITDRIENIDHLGFFIYRLCHDKETYKLQRRET
notes: Bri2 (ITM2B), human, residues 90-236 (linker part and BRICHOS domain); The modelled and aligned Bri2 BRICHOS is 113-231; the expressed construct is 90-236; Vector pET-32c(+); also called Bri2(90-236); source: E. coli Shuffle T7, purified (Ni-Sepharose from 2 M urea extract, thrombin cleavage, second Ni-Sepharose); not shown: Trx, N-terminal, cleaved; His6, N-terminal, cleaved; S tag, N-terminal, …
B2: binds [3].

— publication PMC7299998, “Recombinant Bri3 BRICHOS domain is a molecular chaperone with effect against amyloid formation and non-fibrillar protein aggregation” (Scientific Reports, 2020)
